# According to patent US20250066503A1, “CELL INJURY INDUCING THERAPEUTIC DRUG FOR USE IN CANCER THERAPY” (CHUGAI SEIYAKU KABUSHIKI KAISHA, priority 2016, published 2025):
# Substitutions are numbered along the chain they refer to. “And” between values parts separate entries of the source, which are not always exact repeats. Equal values may be shown once.
# B1: CE115HA251-E22Hh/L0000-k0/GL4-E22Hk/H0000-E22L (bispecific antibody, human IgG1, kappa, L234A L235A, N297A)
# heavy: QVQLVESGGGVVQPGRSLRLSCAASGFTFSNAWMHWVRQAPGKGLEWVAQIKAKSNNYATYYAESVKGRFTISRDDSKNSLYLQMNSLKTEDTAVYYCRYVHYYYYYGVDAWGQGTTVTVSSASTKGPSVFPLAPSSKSTSGGTAALGCLVKDYFPEPVTVSWNSGALTSGVHTFPAVLQSSGLYSLSSVVTVPSSSLGTQTYICNVNHKPSNTKVDKKVEPKSCDKTHTCPPCPAPEAAGGPSVFLFPPKPKDTLMISRTPEVTCVVVDVSHEDPEVKFNWYVDGVEVHNAKTKPREEQYASTYRVVSVLTVLHQDWLNGKEYKCKVSNKALPAPIEKTISKAKGQPREPQVYTLPPSRCELTKNQVSLSCAVKGFYPSDIAVEWESNGQPENNYKTTPPVLDSDGSFFLVSKLTVDKSRWQQGNVFSCSVMHEALHNHYTQKSLSLSPDYKDDDDK
# light: DIVMTQSPLSLPVTPGEPASISCRSSQSLVHSNRNTYLHWYQQKPGQAPRLLIYKVSNRFSGVPDRFSGSGSGTDFTLKISRVEAEDVGVYYCGQGTQVPYTFGQGTKLEIKRTVAAPSVFIFPPSDEQLKSGTASVVCLLNNFYPREAKVQWKVDNALQSGNSQESVTEQDSKDSTYSLSSTLTLSKADYEKHKVYACEVTHQGLSSPVTKSFNRGEC
# chain 1: DIVMTQSPLSLPVTPGEPASISCRSSQSLVHSNRNTYLHWYQQKPGQAPRLLIYKVSNRFSGVPDRFSGSGSGTDFTLKISRVEAEDVGVYYCSQNTHVPPTFGQGTKLEIKSSASTKGPSVFPLAPSSKSTSGGTAALGCLVKDYFPEPVTVSWNSGALTSGVHTFPAVLQSSGLYSLSSVVTVPSSSLGTQTYICNVNHKPSNTKVDKKVEPKSCDKTHTCPPCPAPEAAGGPSVFLFPPKPKDTLMISRTPEVTCVVVDVSHEDPEVKFNWYVDGVEVHNAKTKPREEQYASTYRVVSVLTVLHQDWLNGKEYKCKVSNKALPAPIEKTISKAKGQPREPQVCTLPPSRDELTKNQVSLWCLVKGFYPSDIAVEWESNGQPENNYKTTPPVLDSDGSFFLYSKLTVDKSRWQQGNVFSCSVMHEALHNHYTQKSLSLSPHHHHHHHH
# chain 2: QVQLVQSGAEVKKPGASVKVSCKASGYTFTDYEMHWIRQPPGQGLEWIGAIDPKTGDTAYSQKFKGRVTLTADKSTSTAYMELSSLTSEDTAVYYCTRFYSYTYWGQGTLVTVSSASVAAPSVFIFPPSDEQLKSGTASVVCLLNNFYPREAKVQWKVDNALQSGNSQESVTEQDSKDSTYSLSSTLTLSKADYEKHKVYACEVTHQGLSSPVTKSFNRGEC
# notes: ERY22 format
# B2: TR01H015-E22Hh/none-Hi-Kn010G3/TR01L003-k0 (antibody, human IgG1, L234A L235A, N297A)
# heavy: B1 heavy with V11L, A53G, D75A, L81I, Y104S, Y105A, Y106S, A111I
# VL: DIVMTQSPLSLPVTPGEPASISCRSSQSLVHSNRNTYLHWYQQKPGQAPRLLIYKVSNRFSGVPDRFSGSGSGTDFTLKISRVEAEDVGVYYCGQGTQVPYTFGQGTKVEIE
# notes: one-arm
# B3: CE115HA236-E22Hh/GLS3108-k0/GL4-E22Hk/H0000-E22L (bispecific antibody, human IgG1, kappa, L234A L235A, N297A)
# heavy: B1 heavy with Y105A, D110Q
# light: B1 light with H39S
# chain 1: B1 chain 1
# chain 2: B1 chain 2
# notes: ERY22 format
# B4: TR01H015-E22Hh/none-Hi-Kn010G3/TR01L005-k0 (antibody, human IgG1, L234A L235A, N297A)
# heavy: B1 heavy with V11L, A53G, D75A, L81I, Y104S, Y105A, Y106S, A111I
# VL: B2 VL with Q42L, A48S, R50Q
# notes: one-arm
# B5: TR01H002-E22Hh/GLS3108-k0/GL4-E22Hk/H0000-E22L (bispecific antibody, human IgG1, kappa, L234A L235A, N297A)
# heavy: B1 heavy with A59K, T60K, D110Q
# light: B1 light with H39S
# chain 1: B1 chain 1
# chain 2: B1 chain 2
# notes: ERY22 format
# B6: TR01H015-E22Hh/none-Hi-Kn010G3/TR01L006-k0 (antibody, human IgG1, L234A L235A, N297A, V domains shown)
# VH: QVQLVESGGGLVQPGRSLRLSCAASGFTFSNAWMHWVRQAPGKGLEWVAQIKGKSNNYATYYAESVKGRFTISRADSKNSIYLQMNSLKTEDTAVYYCRYVHYSASYGVDIWGQGTTVTVSS
# VL: B2 VL with R24Q, S25A, Q27E, Q42L, A48S, R50Q
# notes: one-arm
# B7: TR01H015-E22Hh/none-Hi-Kn010G3/TR01L001-k0 (antibody, human IgG1, L234A L235A, N297A)
# heavy: B1 heavy with V11L, A53G, D75A, L81I, Y104S, Y105A, Y106S, A111I
# VL: B2 VL with R24Q, S25A, Q27E, V109L, E112K
# notes: one-arm
# B8: TR01H015-E22Hh/none-Hi-Kn010G3/TR01L002-k0 (antibody, human IgG1, L234A L235A, N297A)
# heavy: B1 heavy with V11L, A53G, D75A, L81I, Y104S, Y105A, Y106S, A111I
# VL: B2 VL with Q42L, A48S, R50Q, V109L, E112K
# notes: one-arm
# B9: TR01H015-E22Hh/none-Hi-Kn010G3/TR01L004-k0 (antibody, human IgG1, L234A L235A, N297A)
# heavy: B1 heavy with V11L, A53G, D75A, L81I, Y104S, Y105A, Y106S, A111I
# VL: B2 VL with R24Q, S25A, Q27E
# notes: one-arm
# B10: hCE115HA-E22stHh/none-Hi-stKn010G3/L0000-k0 (antibody, V domains shown)
# VH: B6 VH with L11V, G53A, A75D, I81L, S104G, S106Y, I111A
# VL: DIVMTQSPLSLPVTPGEPASISCRSSQSLVHSNRNTYLHWYQQKPGQAPRLLIYKVSNRFSGVPDRFSGSGSGTDFTLKISRVEAEDVGVYYCGQGTQVPYTFGQGTKLEIKR
# notes: one-arm
# B11: TR01H040-E22Hh/none-Hi-Kn010G3/L0000vk1-k0 (antibody, V domains shown)
# VH: B6 VH with G53D, N56Q, I111A
# VL: DIQMTQSPSSLSASVGDRVTITCRSSQSLVHSNRNTYLHWYQQKPGKAPKLLIYKVSNRFSGVPSRFSGSGSGTDFTFTISSLQPEDIATYYCGQGTQVPYTFGQGTKVEIK
# notes: one-arm
# B12: hCE115HA-E22Hh/none-Hi-Kn010G3/L0000-k0 (antibody, human IgG1, kappa, L234A L235A, N297A, V domains shown)
# VH: B6 VH with L11V, G53A, A75D, I81L, S104G, S106Y, I111A
# VL: B10 VL
# notes: one-arm; also called hCE115HA-E22Hh//-Hi-Kn010G3/L0000-k0
# B13: TR01H080-E22Hh/none-Hi-Kn010G3/L0000-k0 (antibody, V domains shown)
# VH: QVQLVESGGGLVQPGRSLRLSCAASGFTFSNAWMHWVRQAPGKGLEWVAQIKDKSNNYATYYAESVKGRFTISRADSKNSIYLQMNSLKTEDTAVYYCRYVHYAAVRRRLSSYGVDIWGQGTTVTVSS
# VL: B10 VL
# notes: one-arm
# B14: TR01H082-E22Hh/none-Hi-Kn010G3/TR01L024-k0 (antibody, V domains shown)
# VH: B6 VH with G53D, N56Q, A75D, I81L, S104A, S106G, I111A
# VL: B2 VL with R24Q, S25A, Q27E, L29P, Q42L, A48S, R50Q, G94T, V109L, E112K
# notes: one-arm
# B15: TR01H040-E22Hh/none-Hi-Kn010G3/TR01L011-k0 (antibody, V domains shown)
# VH: B6 VH with G53D, N56Q, I111A
# VL: B2 VL with R24Q, S25A, Q27E, S61R
# notes: one-arm
# B16: rCE115H-G1dh//-Hi-Kn010G3/L0000-k0 (antibody, V domains shown)
# VH: EVQLVETGGSLVQPGKSLKLTCATSGFTFSNAWMHWVRQSPEKQLEWVAQIKAKSNNYATYYAESVKGRFTISRDDSKSNIYLQMNSLKEEDTAVYYCRYVHYGAYYGVDAWGQGTSVTVSS
# VL: B10 VL
# notes: one-arm
# B17: TR01H040-E22Hh/none-Hi-Kn010G3/TR01L018-k0 (antibody, V domains shown)
# VH: B6 VH with G53D, N56Q, I111A
# VL: B2 VL with R24Q, S25A, Q27E, L29P, Q42L, A48S, R50Q, V109L, E112K
# notes: one-arm
# B18: rCE115H-E22Hh/none-Hi-Kn010G3/L0000-k0 (antibody, human IgG1, kappa, L234A L235A, N297A, V domains shown)
# VH: B16 VH
# VL: B10 VL
# notes: one-arm
# B19: TR01H040-E22Hh/none-Hi-Kn010G3/TR01L013-k0 (antibody, V domains shown)
# VH: B6 VH with G53D, N56Q, I111A
# VL: B2 VL with R24Q, S25A, Q27E, Q42L, A48S, R50Q, S61R
# notes: one-arm
# B20: TR01H040-E22Hh/none-Hi-Kn010G3/TR01L012-k0 (antibody, V domains shown)
# VH: B6 VH with G53D, N56Q, I111A
# VL: B2 VL with Q42L, A48S, R50Q, S61R
# notes: one-arm
# B21: TR01H079-E22Hh/none-Hi-Kn010G3/L0000-k0 (antibody, V domains shown)
# VH: B13 VH with V106A, R107E, R108M, R109V, L110R, S111D
# VL: B10 VL
# notes: one-arm
# B22: TR01H015-E22Hh/none-Hi-Kn010G3/L0000-k0 (antibody, human IgG1, kappa, L234A L235A, N297A)
# heavy: B1 heavy with V11L, A53G, D75A, L81I, Y104S, Y105A, Y106S, A111I
# light: B1 light
# notes: one-arm
# B23: hCE115HA-G1dh//-Hi-Kn010G3/L0000-k0 (antibody, V domains shown)
# VH: B6 VH with L11V, G53A, A75D, I81L, S104G, S106Y, I111A
# VL: B10 VL
# notes: one-arm
# B24: hCE115HAa-E22Hh/none-Hi-Kn010G3/L0000-k0 (antibody, V domains shown)
# VH: B6 VH with L11V, R16G, G53A, A75D, I81L, S104G, S106Y, I111A
# VL: B10 VL
# notes: one-arm
# B25: CE115HA251-E22Hh//-Hi-Kn010G3/L0000-k0 (antibody, human IgG1, kappa, L234A L235A, N297A, V domains shown)
# VH: B6 VH with L11V, G53A, A75D, I81L, S104Y, A105Y, S106Y, I111A
# VL: B10 VL
# notes: one-arm
# Biological target: T1, soluble human CD3 epsilon chain (human, UniProt P07766 23-126)
# T1 construct: also called CD3ε
# T1 sequence (P07766 23-126 limits assumed): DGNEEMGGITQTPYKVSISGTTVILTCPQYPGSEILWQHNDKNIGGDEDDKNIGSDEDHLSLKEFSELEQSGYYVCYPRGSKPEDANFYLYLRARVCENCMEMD
# Assay: SPR
row,Kd,Binder
1,14.8 nM,B1
2,63.4 nM,B2
3,6.95 nM,B3
4,65.3 nM,B4
5,4.78 nM,B5
6,93 nM,B6
7,65.6 nM,B7
8,71.4 nM,B8
9,73.4 nM,B9
10,51.7 nM,B10
11,46.9 nM,B11
12,143 nM and 124 nM,B12
13,3.25 nM,B13
14,47.6 nM,B14
15,35.7 nM,B15
16,57.6 nM,B16
17,45.1 nM,B17
18,80 nM,B18
19,41.5 nM,B19
20,42.2 nM,B20
21,50.5 nM,B21
22,61.3 nM,B22
23,65 nM,B23
24,108 nM,B24
25,22.3 nM,B25
